T1: PREP1_(1-344) (UniProt P55347 1-344)
T1 construct: PREP1 (PKNOX1), residues 1-344, lacking the C-terminal region; Second cassette of the di-cistronic vector pGEX-6P-2RBS; also called PKNOX1; C-terminal truncated PREP1; source: E. coli, co-expressed with PBX1(1-308), purified as a complex (cation exchange, SEC on Superose 6)
T1 sequence (looked up): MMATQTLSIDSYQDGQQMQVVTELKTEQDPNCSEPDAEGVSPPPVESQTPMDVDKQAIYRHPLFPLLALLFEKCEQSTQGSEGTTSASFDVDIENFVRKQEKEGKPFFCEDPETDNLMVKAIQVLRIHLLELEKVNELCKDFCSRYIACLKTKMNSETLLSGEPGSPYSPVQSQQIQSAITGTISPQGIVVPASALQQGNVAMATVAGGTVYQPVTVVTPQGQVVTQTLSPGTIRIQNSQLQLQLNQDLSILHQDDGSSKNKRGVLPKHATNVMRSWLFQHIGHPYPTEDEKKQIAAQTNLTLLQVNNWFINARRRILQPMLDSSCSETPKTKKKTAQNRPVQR

T2: full-length MEIS1 (MEIS1_(1-390)) in the purified MEIS1-PBX1 complex (UniProt O00470 1-390)
T2 construct: MEIS1, full length, residues 1-390; source: E. coli, purified as a complex with PBX1(1-308)
T2 sequence (looked up): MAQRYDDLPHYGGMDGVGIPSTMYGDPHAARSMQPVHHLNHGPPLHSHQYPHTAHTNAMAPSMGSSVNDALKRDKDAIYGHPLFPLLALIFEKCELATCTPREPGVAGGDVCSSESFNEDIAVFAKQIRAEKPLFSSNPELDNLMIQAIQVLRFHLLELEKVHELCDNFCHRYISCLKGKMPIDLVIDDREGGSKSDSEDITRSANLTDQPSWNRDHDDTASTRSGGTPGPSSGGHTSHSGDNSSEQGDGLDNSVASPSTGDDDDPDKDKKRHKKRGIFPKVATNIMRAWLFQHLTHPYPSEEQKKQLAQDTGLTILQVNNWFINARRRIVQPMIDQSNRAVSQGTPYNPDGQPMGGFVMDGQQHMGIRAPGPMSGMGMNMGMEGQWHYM

T3: PBX1_(1-430), wild-type recombinant (human, UniProt P40424 1-430)
T3 construct: also called wild-type PBX1; purified recombinant human PBX1; source: E. coli, purified
T3 sequence (looked up): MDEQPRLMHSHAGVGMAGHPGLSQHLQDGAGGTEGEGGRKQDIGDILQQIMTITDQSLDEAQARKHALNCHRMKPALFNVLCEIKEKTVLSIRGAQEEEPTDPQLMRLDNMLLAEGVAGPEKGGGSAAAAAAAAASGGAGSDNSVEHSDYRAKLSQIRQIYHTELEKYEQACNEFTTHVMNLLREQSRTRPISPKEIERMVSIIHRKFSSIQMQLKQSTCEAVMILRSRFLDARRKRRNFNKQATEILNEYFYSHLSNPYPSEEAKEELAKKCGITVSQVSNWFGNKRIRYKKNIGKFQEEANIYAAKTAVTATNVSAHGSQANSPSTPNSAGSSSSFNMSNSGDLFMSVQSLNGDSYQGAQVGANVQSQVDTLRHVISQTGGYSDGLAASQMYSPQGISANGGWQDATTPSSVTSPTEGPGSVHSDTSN


Key:
Details in all cases: both partners purified
PREP1_(1-344) = target: T1, PREP1_(1-344); assay: cross-linking; purified complex at 1 mg/ml in 50 mM borate-buffered saline, 1 mM BS^3, 1 h at room temperature; SDS-PAGE, in-gel Glu-C and trypsin digestion, nLC-ESI-MS/MS, pLink 2; two biological replicates
[1] = target: T2, full-length MEIS1 (MEIS1_(1-390)) in …; assay: as above
[2] = target: T3, PBX1_(1-430), wild-type recombinant; assay: ELISA; PBX1 wild-type coated at 0.1 µM in 100 mM Tris–HCl pH 7.5; GST-fused proteins at 0.23 nM to 0.5 µM, 1 h at 37 °C; anti-GST detection; GST signal subtracted; one-site binding model

binding result (PREP1_(1-344))	binding result [1]	Kd [2] [nM]	Binder
binds	binds	–	PBX1_(1-308) (domain or fragment, human, UniProt P40424 1-308, looked up, PBX1, residues 1-308, lacking the C-terminal region; First cassette of the di-cistronic vector pGEX-6P-2RBS, with PREP1 in the second; also called C-terminal truncated PBX1; source: E. coli, purified as a complex with PREP1(1-344) or with MEIS1 (ion exchange, SEC on Superose 6)) MDEQPRLMHSHAGVGMAGHPGLSQHLQDGAGGTEGEGGRKQDIGDILQQIMTITDQSLDEAQARKHALNCHRMKPALFNVLCEIKEKTVLSIRGAQEEEPTDPQLMRLDNMLLAEGVAGPEKGGGSAAAAAAAAASGGAGSDNSVEHSDYRAKLSQIRQIYHTELEKYEQACNEFTTHVMNLLREQSRTRPISPKEIERMVSIIHRKFSSIQMQLKQSTCEAVMILRSRFLDARRKRRNFNKQATEILNEYFYSHLSNPYPSEEAKEELAKKCGITVSQVSNWFGNKRIRYKKNIGKFQEEANIYAAK
–	–	80 ± 17	GST-fused wild-type MEIS1 (natural protein, UniProt O00470 1-390, looked up, MEIS1, full length, residues 1-390; Detected through GST in the ELISA; source: E. coli, purified) MAQRYDDLPHYGGMDGVGIPSTMYGDPHAARSMQPVHHLNHGPPLHSHQYPHTAHTNAMAPSMGSSVNDALKRDKDAIYGHPLFPLLALIFEKCELATCTPREPGVAGGDVCSSESFNEDIAVFAKQIRAEKPLFSSNPELDNLMIQAIQVLRFHLLELEKVHELCDNFCHRYISCLKGKMPIDLVIDDREGGSKSDSEDITRSANLTDQPSWNRDHDDTASTRSGGTPGPSSGGHTSHSGDNSSEQGDGLDNSVASPSTGDDDDPDKDKKRHKKRGIFPKVATNIMRAWLFQHLTHPYPSEEQKKQLAQDTGLTILQVNNWFINARRRIVQPMIDQSNRAVSQGTPYNPDGQPMGGFVMDGQQHMGIRAPGPMSGMGMNMGMEGQWHYM

Source: PMC7545097, “Mapping the native interaction surfaces of PREP1 with PBX1 by cross-linking mass-spectrometry and mutagenesis” (Scientific Reports, 2020)
